Experimental data reported in patent US20220017612A1 (TILOS THERAPEUTICS, published 2022).
Substitutions are numbered along the chain they refer to. In names and notes the source's numbering stands. Blank lines part the entries; values can stand above or below the binder they belong to.

Experiments:
[1] = molecular target: T1, human LAP-TGFβ1 overexpressed on cells (human, UniProt P01137 30-390); assay: flow cytometry; black bar HT1080-huB1, grey bar HT1080-null
T1 construct: HT1080 or P3U1 cells overexpressing wild-type human LAP-TGFβ1; also called HT1080-huB1; HT1080-hβ1

[2] = molecular target: T2, human GARP and human LAP-TGFβ1 co-expressed on P3U1 cells (human, UniProt Q14392 20-662); assay: flow cytometry competition with biotin-28G11 (0.31 µg) on P3U1 cells with human GARP and LAP-TGFβ1
T2 construct: whole, on cells; also called P3U1 cells over-expressing human GARP and LAP-TGFβ1
Procedure: In the first experiment, the various humanized 28G11 candidates were tested for retention of binding to human LAP-TGFβ1 by competition with biotin-28G11 in a flow cytometry assay.
P3U1 cells over-expressing human GARP and LAP-TGFβ1 were placed in a round-bottom 96-well plate at density of 40,000 cells/well. The cells were washed with FACS buffer (25 mM HEPES, 2 mM EDTA, 2% fetal bovine serum in Hank's Balanced Salt Solution). 50 μL of 1:200 diluted TruStain Mouse FcX (BioLegend) was added to each well, followed by 50 μL of 100 ng/μL of humanized 28G11 construct (H0L0, H0L1, H0L2, H0L3, HILO, H1L1, H1L2, H1L3, H2L0, H2L1, H2L2, H2L3). The antibody was allowed to bind for 10 minutes. 50 μL of 6.2 ng/μL of biotinylated murine hybridoma 28G11_(hyb) was added to each well. The biotinylated antibody was allowed to bind for 10 minutes, and then the cells were washed twice with FACS buffer. The cells were labeled for 15 minutes with allophytocyanin-streptavidin (BioLegend), washed twice with FACS buffer, and analyzed by flow cytometry.

LAP-TGFβ1 on THP-1 cells = molecular target: T3, LAP-TGFβ1 on THP-1 cells (Homo sapiens, UniProt P01137); assay: flow cytometry, THP-1 cells, % positive cells
T3 construct: cell surface, endogenous; also called LAP+ THP-1 cells
Procedure: Anti-LAP antibodies were tested for their ability to bind to THP-1 cells, a cell line derived from a patient with acute monocytic leukemia that is reported to express LRRC33. THP-1 cells were incubated with FACS buffer and human Fc block followed by incubation with varying concentrations of Alexa 647 conjugated 28G11_(hyb), 22F9_mIgG2a, 20E6_mIgG2a, 17G8_hIgG1, 24E3_hIgG1, 2C9_mIgG2a, or mIgG2a isotype control. Cells were analyzed by flow cytometry and graphed as percent positive THP-1 cells or median fluorescent intensity (MFI) of anti-LAP binding. As shown in FIGS. 10A and 10B, antibodies 22F9, 17G8, 24E3, 20E6, and 2C9 display strong binding to THP-1 cells. […] In another experiment, the binding of 20E6 mIgG2a and 7H4 hyb to THP-1 cells was compared using the methods described above. […] In a separate experiment THP-1 cells were incubated with FACS buffer and human Fc block followed by incubation with 5 ug/ml of Alexa 647 conjugated 28G11_hyb, 22F9_mIgG2a, 20E6_mIgG2a, 2C9_mIgG2a, or IgG2a isotype control. Cells were analyzed by flow cytometry and gated as single cells. Representative dot plots are shown in FIG. 10D; in these plots, antibodies were at 5 ug/ml.

[3] = molecular target: human-chicken LAP-TGFβ1 chimera #6 on HT1080 cells (human/chicken chimera, UniProt P01137 30-390); assay: flow cytometry, transduced HT1080 cells
Procedure: (§1) These constructs were subcloned into lentivirus and transduced into HT1080 cells. Successful gene integration was confirmed by expression of a green fluorescent protein (GFP) reporter gene. LAP-TGFβ1 expression was evaluated by flow cytometry using a rabbit monoclonal antibody (Rmab) raised against a peptide from the mature cytokine (residues 250-361) domain (Abeam cat #ab179695), 28G11_(hyb) and 2C9_(hyb). Briefly, 4×10⁵ each of (a) HT1080 cells, (b) HT1080 cells overexpressing human LAP-TGFβ1, (c) HT1080 cells overexpressing chicken LAP-TGFβ1, and (d) HT1080 cells overexpressing human/chicken chimeras #1-#7 were cultured in 96-well plates. The plates were centrifuged for 5 min at 1,500 rpm, liquid was removed, and cells were resuspended with 200 μL FACS buffer. The plates were centrifuged again, diluted primary antibody was added to each well, and the plates were incubated on ice for 20 minutes, followed by centrifugation. The cells were resuspended in 200 μL FACS buffer, centrifuged again, and resuspended in 50 μL diluted secondary antibody (APC-anti-Mouse IgG). The plates were incubated on ice for 20 minutes in the dark, washed twice with 200 μL FACS buffer, and cells from each well (in 200 μL FACS buffer) were read on the Attune NXT instrument. The antibodies were considered to be binding if >10% of cells were GFP+/APC+ and there was visible correlation between the GFP and allophycocyanin (APC) signals (Table 5).

[4] = molecular target: T4, human-chicken LAP-TGFβ1 chimera #2.2 on HT1080 cells (human/chicken chimera, UniProt P01137 30-390); assay: flow cytometry, transduced HT1080 cells
T4 construct: also called HT1080-ch2.2
Procedure: as §1

[5] = molecular target: T5, human-chicken LAP-TGFβ1 chimera #4 on HT1080 cells (human/chicken chimera, UniProt P01137 30-390); assay: flow cytometry, transduced HT1080 cells
T5 construct: also called HT1080-ch4
Procedure: as §1

[6] = molecular target: T6, chicken LAP-TGFβ1 on HT1080 cells (chicken, UniProt P09531 19-391); assay: flow cytometry, transduced HT1080 cells
T6 construct: also called chB1
T6 sequence: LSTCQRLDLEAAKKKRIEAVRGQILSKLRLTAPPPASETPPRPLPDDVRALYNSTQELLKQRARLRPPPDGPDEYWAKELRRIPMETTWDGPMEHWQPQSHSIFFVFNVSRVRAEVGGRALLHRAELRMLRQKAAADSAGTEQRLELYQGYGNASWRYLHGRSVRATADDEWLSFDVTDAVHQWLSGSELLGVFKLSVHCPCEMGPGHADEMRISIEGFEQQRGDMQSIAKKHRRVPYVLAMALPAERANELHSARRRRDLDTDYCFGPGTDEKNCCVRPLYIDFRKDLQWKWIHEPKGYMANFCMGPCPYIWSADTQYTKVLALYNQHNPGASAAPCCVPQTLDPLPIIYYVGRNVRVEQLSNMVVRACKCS
Procedure: as §1

[7] = molecular target: human-chicken LAP-TGFβ1 chimera #1.2 on HT1080 cells (human/chicken chimera, UniProt P01137 30-390); assay: flow cytometry, transduced HT1080 cells
Procedure: as §1

[8] = molecular target: T7, human-chicken LAP-TGFβ1 chimera #2.1 on HT1080 cells (human/chicken chimera, UniProt P01137 30-390); assay: flow cytometry, transduced HT1080 cells
Procedure: as §1

[9] = molecular target: T8, human-chicken LAP-TGFβ1 chimera #2.3 on HT1080 cells (human/chicken chimera, UniProt P01137 30-390); assay: flow cytometry, transduced HT1080 cells
T8 construct: also called HT1080-ch2.3
Procedure: as §1

[10] = molecular target: human-chicken LAP-TGFβ1 chimera #7 on HT1080 cells (human/chicken chimera, UniProt P01137 30-390); assay: flow cytometry, transduced HT1080 cells
Procedure: as §1

[11] = molecular target: human-chicken LAP-TGFβ1 chimera #1.3 on HT1080 cells (human/chicken chimera, UniProt P01137 30-390); assay: flow cytometry, transduced HT1080 cells
Procedure: as §1

[12] = molecular target: human-chicken LAP-TGFβ1 chimera #5 on HT1080 cells (human/chicken chimera); assay: flow cytometry, transduced HT1080 cells
Procedure: as §1

[13] = molecular target: T1, human LAP-TGFβ1 overexpressed on cells; assay: flow cytometry, transduced HT1080 cells
Procedure: as §1

[14] = molecular target: human-chicken LAP-TGFβ1 chimera #3 on HT1080 cells (human/chicken chimera, UniProt P01137 30-390); assay: flow cytometry, transduced HT1080 cells
Procedure: as §1

LAP-TGFβ1 on U937 cells [15] = molecular target: T9, LAP-TGFβ1 on U937 cells (Homo sapiens, UniProt P01137); assay: flow cytometry, U937 cells, Alexa 647 antibody, % LAP+ cells
T9 construct: cell surface, endogenous; also called LAP+ U937 cells
Procedure: (§2) Anti-LAP antibodies were tested for their ability to bind to U937 cells, a myeloid cell line derived from a patient with histiocytic lymphoma. U937 cells were incubated with FACS buffer and human Fc block followed by incubation with varying concentrations of Alexa 647 conjugated 28G11_hyb, 22F9_mIgG2a, or 20E6_mIgG2a. In a separate experiment U937 cells were incubated with FACS buffer and human Fc block followed by incubation with 10 ug/ml of Alexa 647 conjugated 28G11_hyb, 22F9_mIgG2a, 20E6_mIgG2a or mIgG2a isotype control (FIGS. 10E and 10F). Representative dot plots are shown in FIG. 10G; in these plots, antibodies were at 10 ug/ml.

LAP-TGFβ1 on U937 cells [16] = molecular target: T9, LAP-TGFβ1 on U937 cells; assay: flow cytometry dot plot against GARP, U937 cells, Alexa 647 antibody at 10 ug/ml
Procedure: as §2

[17] = molecular target: T4, human-chicken LAP-TGFβ1 chimera #2.2 on …; assay: flow cytometry, HT1080 cells
Procedure: as §1

[18] = molecular target: T6, chicken LAP-TGFβ1 on HT1080 cells; assay: flow cytometry, HT1080 cells
Procedure: as §1

[19] = molecular target: T7, human-chicken LAP-TGFβ1 chimera #2.1 on …; assay: flow cytometry, HT1080 cells
Procedure: as §1

[20] = molecular target: T1, human LAP-TGFβ1 overexpressed on cells; assay: flow cytometry; black bar HT1080-huB1, grey bar HT1080

T1 sequence (P01137 30-390): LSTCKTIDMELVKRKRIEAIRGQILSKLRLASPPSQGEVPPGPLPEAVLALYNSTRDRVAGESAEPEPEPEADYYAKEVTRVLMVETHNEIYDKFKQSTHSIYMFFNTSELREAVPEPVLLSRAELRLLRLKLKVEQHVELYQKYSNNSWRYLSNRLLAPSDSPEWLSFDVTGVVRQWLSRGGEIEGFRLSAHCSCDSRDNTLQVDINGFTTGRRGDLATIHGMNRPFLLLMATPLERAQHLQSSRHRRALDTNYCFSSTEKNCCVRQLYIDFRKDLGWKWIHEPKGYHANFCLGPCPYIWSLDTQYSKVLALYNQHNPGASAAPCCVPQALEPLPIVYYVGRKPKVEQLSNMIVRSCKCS
T9 sequence (P01137 30-390 limits assumed): as the sequence (P01137 30-390) above
T2 sequence (chain, as listed by the source, chain 1 of 2): as the sequence (P01137 30-390) above
T2 sequence (Q14392 20-662, chain 2 of 2): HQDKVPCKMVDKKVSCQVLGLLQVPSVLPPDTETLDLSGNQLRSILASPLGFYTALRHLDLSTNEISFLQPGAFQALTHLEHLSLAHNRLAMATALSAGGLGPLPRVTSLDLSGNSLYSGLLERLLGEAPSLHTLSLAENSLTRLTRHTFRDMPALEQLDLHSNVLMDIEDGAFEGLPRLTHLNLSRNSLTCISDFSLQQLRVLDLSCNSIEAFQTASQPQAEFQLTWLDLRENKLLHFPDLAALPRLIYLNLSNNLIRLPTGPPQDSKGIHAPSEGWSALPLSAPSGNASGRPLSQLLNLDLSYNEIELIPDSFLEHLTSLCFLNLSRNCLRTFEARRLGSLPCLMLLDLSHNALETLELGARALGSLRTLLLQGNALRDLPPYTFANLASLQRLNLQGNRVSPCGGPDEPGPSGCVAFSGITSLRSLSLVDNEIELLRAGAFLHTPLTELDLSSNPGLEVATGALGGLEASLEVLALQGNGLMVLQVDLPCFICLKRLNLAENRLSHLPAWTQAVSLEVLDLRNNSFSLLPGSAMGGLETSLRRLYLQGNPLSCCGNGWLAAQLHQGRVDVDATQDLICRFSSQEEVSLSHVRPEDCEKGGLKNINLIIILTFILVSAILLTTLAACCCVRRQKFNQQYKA
T7 sequence (P01137 other isoform, or with tags, fused parts or gaps mutant): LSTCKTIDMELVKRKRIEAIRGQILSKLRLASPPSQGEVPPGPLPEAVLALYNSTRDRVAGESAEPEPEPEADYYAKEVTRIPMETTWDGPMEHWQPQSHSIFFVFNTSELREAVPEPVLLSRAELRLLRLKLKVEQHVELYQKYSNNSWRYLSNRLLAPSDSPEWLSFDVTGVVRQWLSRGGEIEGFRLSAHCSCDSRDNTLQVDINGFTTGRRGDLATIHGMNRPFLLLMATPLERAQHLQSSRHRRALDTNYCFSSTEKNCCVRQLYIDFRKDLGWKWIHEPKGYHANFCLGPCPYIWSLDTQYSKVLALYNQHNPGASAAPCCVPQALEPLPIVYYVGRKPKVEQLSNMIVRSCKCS
T4 sequence (P01137 other isoform, or with tags, fused parts or gaps mutant): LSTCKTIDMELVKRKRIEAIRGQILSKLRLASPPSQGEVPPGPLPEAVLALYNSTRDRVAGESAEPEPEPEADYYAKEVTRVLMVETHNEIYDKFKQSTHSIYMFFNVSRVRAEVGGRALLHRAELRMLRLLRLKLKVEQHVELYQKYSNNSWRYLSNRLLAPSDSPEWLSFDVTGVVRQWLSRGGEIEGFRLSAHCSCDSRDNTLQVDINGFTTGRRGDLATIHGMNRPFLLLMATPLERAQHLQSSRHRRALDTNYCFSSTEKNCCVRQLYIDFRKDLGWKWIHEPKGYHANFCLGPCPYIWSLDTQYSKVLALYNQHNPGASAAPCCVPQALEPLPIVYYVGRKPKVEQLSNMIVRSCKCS
T5 sequence (P01137 other isoform, or with tags, fused parts or gaps mutant): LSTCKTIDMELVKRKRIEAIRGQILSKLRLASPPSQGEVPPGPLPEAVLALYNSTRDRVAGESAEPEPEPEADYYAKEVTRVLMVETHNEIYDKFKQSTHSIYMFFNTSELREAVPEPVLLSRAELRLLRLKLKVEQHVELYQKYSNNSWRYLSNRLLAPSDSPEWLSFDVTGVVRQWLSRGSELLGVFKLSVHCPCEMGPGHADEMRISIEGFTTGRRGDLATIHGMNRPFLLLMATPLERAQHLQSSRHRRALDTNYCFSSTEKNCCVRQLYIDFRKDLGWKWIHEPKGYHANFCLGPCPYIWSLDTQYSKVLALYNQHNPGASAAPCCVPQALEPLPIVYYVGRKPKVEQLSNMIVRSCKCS
T8 sequence (P01137 other isoform, or with tags, fused parts or gaps mutant): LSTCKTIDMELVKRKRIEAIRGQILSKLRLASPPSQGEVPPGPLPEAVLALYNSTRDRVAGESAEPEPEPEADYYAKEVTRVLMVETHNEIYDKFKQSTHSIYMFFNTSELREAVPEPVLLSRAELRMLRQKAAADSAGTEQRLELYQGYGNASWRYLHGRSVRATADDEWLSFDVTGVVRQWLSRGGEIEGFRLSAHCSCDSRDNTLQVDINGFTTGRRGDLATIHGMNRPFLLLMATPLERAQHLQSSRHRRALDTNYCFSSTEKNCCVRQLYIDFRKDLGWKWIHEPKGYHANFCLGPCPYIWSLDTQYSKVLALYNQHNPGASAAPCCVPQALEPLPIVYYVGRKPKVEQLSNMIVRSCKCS
T3 sequence (P01137 30-390 limits assumed): as the sequence (P01137 30-390) above
Sequence of human-chicken LAP-TGFβ1 chimera #1.2 on HT1080 cells (P01137 other isoform, or with tags, fused parts or gaps mutant): as the sequence (P01137 30-390) above, with A31T, S32A, S35P, Q36A, G37S, V39T, G42R, E46D, A47D, L49R counted along it
Sequence of human-chicken LAP-TGFβ1 chimera #3 on HT1080 cells (P01137 other isoform, or with tags, fused parts or gaps mutant): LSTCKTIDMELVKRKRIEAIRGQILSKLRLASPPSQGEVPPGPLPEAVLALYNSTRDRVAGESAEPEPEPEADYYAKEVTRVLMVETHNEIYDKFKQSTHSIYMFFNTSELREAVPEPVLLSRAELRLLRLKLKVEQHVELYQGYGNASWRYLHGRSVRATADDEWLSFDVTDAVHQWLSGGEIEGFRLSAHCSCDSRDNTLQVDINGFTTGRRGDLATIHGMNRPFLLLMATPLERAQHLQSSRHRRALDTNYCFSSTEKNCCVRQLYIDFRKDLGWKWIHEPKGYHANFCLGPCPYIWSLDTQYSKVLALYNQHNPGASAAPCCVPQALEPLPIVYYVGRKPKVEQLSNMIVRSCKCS
Sequence of human-chicken LAP-TGFβ1 chimera #5 on HT1080 cells (human/chicken chimera) (chain, as listed by the source mutant limits assumed): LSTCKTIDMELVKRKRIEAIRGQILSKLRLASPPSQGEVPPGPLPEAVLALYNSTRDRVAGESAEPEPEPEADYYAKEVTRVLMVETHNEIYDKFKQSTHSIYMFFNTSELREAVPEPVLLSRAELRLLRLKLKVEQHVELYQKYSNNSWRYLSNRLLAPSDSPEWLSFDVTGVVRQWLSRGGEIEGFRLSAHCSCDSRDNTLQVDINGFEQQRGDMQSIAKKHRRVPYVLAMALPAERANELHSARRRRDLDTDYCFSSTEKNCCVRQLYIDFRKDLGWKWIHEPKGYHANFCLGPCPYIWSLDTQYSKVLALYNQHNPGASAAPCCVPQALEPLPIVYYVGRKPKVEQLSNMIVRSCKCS
Sequence of human-chicken LAP-TGFβ1 chimera #1.3 on HT1080 cells (P01137 other isoform, or with tags, fused parts or gaps mutant): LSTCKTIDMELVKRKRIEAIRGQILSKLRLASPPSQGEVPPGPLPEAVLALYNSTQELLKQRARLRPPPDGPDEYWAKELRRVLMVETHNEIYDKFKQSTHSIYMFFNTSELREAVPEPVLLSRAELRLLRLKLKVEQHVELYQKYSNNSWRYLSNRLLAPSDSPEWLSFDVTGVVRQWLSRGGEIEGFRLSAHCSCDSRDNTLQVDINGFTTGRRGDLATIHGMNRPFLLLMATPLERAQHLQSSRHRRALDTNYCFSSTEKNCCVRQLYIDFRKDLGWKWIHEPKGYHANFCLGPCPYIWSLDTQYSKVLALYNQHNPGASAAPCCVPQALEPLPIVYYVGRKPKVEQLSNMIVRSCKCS
Sequence of human-chicken LAP-TGFβ1 chimera #6 on HT1080 cells (P01137 other isoform, or with tags, fused parts or gaps mutant): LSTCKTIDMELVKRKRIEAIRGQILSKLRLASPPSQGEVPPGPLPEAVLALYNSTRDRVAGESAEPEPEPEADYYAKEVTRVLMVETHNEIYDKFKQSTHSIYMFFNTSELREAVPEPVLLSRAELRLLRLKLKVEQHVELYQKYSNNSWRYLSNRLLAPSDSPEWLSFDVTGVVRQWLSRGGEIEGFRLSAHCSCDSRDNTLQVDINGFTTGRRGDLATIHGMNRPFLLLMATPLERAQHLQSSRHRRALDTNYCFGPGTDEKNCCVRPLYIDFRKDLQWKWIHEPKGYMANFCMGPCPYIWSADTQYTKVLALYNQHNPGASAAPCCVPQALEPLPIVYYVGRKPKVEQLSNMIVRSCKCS

B2: 28G11_H2L0 (antibody, human IgG1, kappa, V domains shown)
VH: EVQLVESGGGLVQPGGSLRLSCAASGFTFTDYYMSWVRQAPGKGLEWLGFIRNKPNGYTTEYSASVKGRFTISRDNSQSSLYLQMNSLKTEDTAVYYCARYTGGGYFDYWGQGTLLTVSS
VL: DIQMTQSPSSLSASVGDRVTITCRASQDISNYLNWYQQKPGKVPKLLIYYTSRLHSGVPSRFSGSGSGTDFTLTISSLQPEDVATYYCQQGDTLPWTFGQGTKLEIKR
binding result [2]: no binding (tested: 5 µg competitor)

B3: 28G11_H0L3 (antibody, human IgG1, kappa, V domains shown)
VH: B2 VH with T30S, L48V, N76D, Q78K, S79N, L116V
VL: B2 VL with V19L, T22S, V43T, P44V, F71Y, Y87F
binding result [2]: no binding (tested: 5 µg competitor)

B5: 28G11_(hyb) (antibody, mouse IgG2b, kappa, V domains shown)
VH: EVKLVESGGGLVQPGGSLSLSCAASGFTFTDYYMSWVRQPPGKALEWLGFIRNKPNGYTTEYSASVKGRFTISRDNSQSILYLQMNVLRAEDSATYYCARYTGGGYFDYWGQGTTLTVSS
VL: DIQMTQTTSSLSASLGDRLTISCRASQDISNYLNWYQQKPDGTVKLLIYYTSRLHSGVPSRFSGSGSGTDYSLTISNLEQADIATYFCQQGDTLPWTFGGGTKLEIKR
notes: parental murine antibody; also called murine hybridoma 28G11; biotin-28G11
% GFP+/APC+ cells [3]: 84.9%
% GFP+/APC+ cells [4]: 0.5%
% GFP+/APC+ cells [5]: 76.2%
% GFP+/APC+ cells [6]: 0.3%
% GFP+/APC+ cells [7]: 84.1%
% GFP+/APC+ cells [8]: 3.5%
% GFP+/APC+ cells [9]: 94.7%
% GFP+/APC+ cells [10]: 44.4%
% GFP+/APC+ cells [11]: 83%
% GFP+/APC+ cells [12]: 41.7%
% GFP+/APC+ cells [13]: 98.3%
% GFP+/APC+ cells [14]: 32.2%
EC50 (read off the curve) (LAP-TGFβ1 on U937 cells [15]): ~30 µg/mL
% of cells in Q1 (antibody axis positive, GARP negative) (LAP-TGFβ1 on U937 cells [16]): 6.56%
% of cells in Q2 (antibody axis positive, GARP positive) (LAP-TGFβ1 on U937 cells [16]): 0.16%
binding result [17]: no binding
binding result [18]: no binding
binding result [19]: no binding

B6: 22F9_Y98R (antibody, human IgG1, kappa, V domains shown)
VH: QVQLVQPGAEVVKPGASVKLSCKASGYTFTSYWMHWVKQRPGQGLEWIGMIHPNSGSTNYNEKFKSKATLTVDKSSSTAYMELSSLRSEDTAVYYCARYDYDGFFDVWGQGTLVTVSS
VL: DIQLTQSPSSLSASVGDRVTITCRASKSVSTSGYSYMHWYQQKPGKAPKLLIYLASNLESGVPSRFSGSGSGTDFTLTISSLQPEDFATYYCQHSRELPYTFGGGTKVEIKR
notes: also called 22F9_H5L0 with VH Y98R
binding result [20]: binds

Other lines, results leading:

binding result [1]: binds
B1: 20E6 H0.1 construct (antibody, human IgG1, kappa, V domains shown)
VH: QVQLVQSGAEVKKPGASVKVSCKASGYTFTSYWMHWVRQAPGQGLEWMGRIDPNSGGIKYAQKFQGRATLTVDTSTSTAYMELSRLRSDDTAVYYCARWDYGGYFDVWGQGTLVTVSS
VL: B2 VL with S30T, V43A, P44V, F71Y, V83F, Y87F

binding result (LAP-TGFβ1 on THP-1 cells): no binding (tested: 100 ug/ml)
B4: 7H4 (antibody, mouse IgG2b, kappa, V domains shown)
VH: DVQLQESGPGLVKPSQSLSLTCSVTGYSITSGYYWNWIRQFPGNKLEWMGYISYDGTNNYNPSLKNRISITRDTSKHQFFLKLNSVTTEDTATYYCARSFYNNYFDFWGQGTTLTVSS
VL: DIQMTQSPSSLSASLGGKVTITCKASQDIDKYIAWYQHKPGKGPRLLIHYTSTLQPGIPSRFSGSGSGRDYSFNISNLEPEDIATYYCLQYDNLRTFGGGTKLEIKR
notes: also called 7H4 hyb; 7H4_(hyb)
